# Source: the FLAb antibody collection
# Test: patients with anti-drug antibodies; higher = more immunogenic
row,Protein,patients with anti-drug antibodies
1,unnamed (protein) chain 1: EVQLVQSGAEVKKPGASVKVSCKASGYTFTSYVIHWVRQRPGQGLAWMGYINPYNDGTKYNERFKGKVTITSDRSTSTVYMELSSLRSEDTAVYLCGREGIRYYGLLGDYWGQGTLVTVSS chain 2: DIQMTQSPSSLSASVGDRVTITCGTSEDIINYLNWYQQKPGKAPKLLIYHTSRLQSGVPSRFSGSGSGTDFTLTISSLQPEDFATYYCQQGYTLPYTFGQGTKVEIK,13%
2,unnamed (protein) chain 1: QVQLQQSGAELVRPGSSVKISCKASGYAFSSYWMNWVKQRPGQGLEWIGQIWPGDGDTNYNGKFKGKATLTADESSSTAYMQLSSLASEDSAVYFCARRETTTVGRYYYAMDYWGQGTTVTVSS chain 2: DIQLTQSPASLAVSLGQRATISCKASQSVDYDGDSYLNWYQQIPGQPPKLLIYDASNLVSGIPPRFSGSGSGTDFTLNIHPVEKVDAATYHCQQSTEDPWTFGGGTKLEIK,1.4%
3,unnamed (protein) chain 1: EVQLQQSGAELVKPGASVKLSCTASGFNIKDTYVHWVKQRPEQGLEWIGRIDPANGYTKYDPKFQGKATITADTSSNTAYLQLSSLTSEDTAVYYCVRPLYDYYAMDYWGQGTSVTVSS chain 2: DILMTQSPSSMSVSLGDTVSITCHASQGISSNIGWLQQKPGKSFMGLIYYGTNLVDGVPSRFSGSGSGADYSLTISSLDSEDFADYYCVQYAQLPYTFGGGTKLEIK,35.5%
4,unnamed (protein) chain 1: QVQLVESGGGVVQPGRSLRLSCAASGFTFSTYGMHWVRQAPGKGLEWVAVIWDDGSYKYYGDSVKGRFTISRDNSKNTLYLQMNSLRAEDTAVYYCARDGITMVRGVMKDYFDYWGQGTLVTVSS chain 2: AIQLTQSPSSLSASVGDRVTITCRASQDISSALVWYQQKPGKAPKLLIYDASSLESGVPSRFSGSESGTDFTLTISSLQPEDFATYYCQQFNSYPLTFGGGTKVEIK,0%
5,unnamed (protein) chain 1: QVQLVQSGAEVKKPGASVKVSCKGSGYTFTSYWMHWVRQAPGQRLEWIGEIDPSESNTNYNQKFKGRVTLTVDISASTAYMELSSLRSEDTAVYYCARGGYDGWDYAIDYWGQGTLVTVSS chain 2: DVVMTQSPLSLPVTPGEPASISCRSSQSLAKSYGNTYLSWYLQKPGQSPQLLIYGISNRFSGVPDRFSGSGSGTDFTLKISRVEAEDVGVYYCLQGTHQPYTFGQGTKVEIK,9.5%
6,unnamed (protein) chain 1: QVQLQQSGAEVKKPGSSVKVSCKASGYTFTSYNMHWVKQAPGQGLEWIGAIYPGMGDTSYNQKFKGKATLTADESTNTAYMELSSLRSEDTAFYYCARSTYYGGDWYFDVWGQGTTVTVSS chain 2: DIQLTQSPSSLSASVGDRVTMTCRASSSVSYIHWFQQKPGKAPKPWIYATSNLASGVPVRFSGSGSGTDYTFTISSLQPEDIATYYCQQWTSNPPTFGGGTKLEIK,19.5%
7,unnamed (protein) chain 1: QVELVESGGGLVQPGGSLRLSCAASGFTFTSYWMSWVRQAPGKGLELVSSITSYGSFTYYADSVKGRFTISRDNSKNTLYLQMNSLRAEDTAVYYCARNMYTHFDSWGQGTLVTVSS chain 2: DIVLTQPPSVSGAPGQRVTISCSGSSSNIGSNSVSWYQQLPGTAPKLLIYDNSKRPSGVPDRFSGSKSGTSASLAITGLQSEDEADYYCQSRDTYGYYWVFGGGTKLTVL,2.3%
8,unnamed (protein) chain 1: QVQLVQSGAEVKKPGASVKVSCKASGYTFTSYYMHWVRQAPGQGLEWMGEISPFGGRTNYNEKFKSRVTMTRDTSTSTVYMELSSLRSEDTAVYYCARERPLYASDLWGQGTTVTVSS chain 2: DIQMTQSPSSLSASVGDRVTITCRASQGISSALAWYQQKPGKAPKLLIYSASYRYTGVPSRFSGSGSGTDFTFTISSLQPEDIATYYCQQRYSLWRTFGQGTKLEIK,25.5%
9,unnamed (protein) chain 1: QVQLQESGPGLVKPSETLSLTCTVSGFSLTNYGIHWIRQPPGKGLEWLGVIWARGFTNYNSALMSRLTISKDNSKNQVSLKLSSVTAADTAVYYCARANDGVYYAMDYWGQGTLVTVSS chain 2: DFVMTQSPAFLSVTPGEKVTITCSAQSSVNYIHWYQQKPDQAPKKLIYDTSKLASGVPSRFSGSGSGTDYTFTISSLEAEDAATYYCQQWTTNPLTFGQGTKVEIK,2.6%
10,unnamed (protein) chain 1: QVQLQQPGAELVRPGASVKLSCKASGYTFTSYWINWVKQRPGQGLEWIGNIYPSDSYTNYNQKFKDKATLTVDKSSSTAYMQLSSPTSEDSAVYYCTRSWRGNSFDYWGQGTTLTVSS chain 2: DIVMTQSPSSLTVTAGEKVTMSCKSSQSLLNSGNQKNYLTWYQQKPGQPPKLLIYWASTRESGVPDRFTGSGSGTDFTLTISSVQAEDLAVYYCQNDYSYPFTFGSGTKLEIK,0%
11,unnamed (protein) chain 1: EVQLQQSGPELVKPGASVKMSCKASGYTFTSYVVHWVKQNPGQGLEWIGYINPFNDGTKYNENFKGKATLTSDRSSSTAYMELSSLTSEESAVYFCARDMGREGFAYWGQGTLVTVSA chain 2: DIVMTQAAFSNPVTLGTSASISCRSSKSLLHSNGITYLYWYLQKPGQSPQLLIYQMSNLASGVPDRFSSSGSGTDFTLRISRVEAEDVGVYYCAQNLELPRTFGGGTKLEI,100%
12,unnamed (protein) chain 1: QVQLVESGGGVVQPGRSLRLSCAASGFTFSSYGMHWVRQAPGKGLEWVAVIWYDGSNEYYADSVKGRFTISRDNSKNTLYLQMNSLRAEDTAVYYCARDRGYTSSWYPDAFDIWGQGTMVTVSS chain 2: QSVLTQPPSVSGAPGQRVTISCTGSSSNTGAGYDVHWYQQVPGTAPKLLIYGSGNRPSGVPDRFSGSKSGTSASLAITGLQAEDEADYYCQSYDSSLSGWVFGGGTRLTVL,2.5%
13,unnamed (protein) chain 1: QVQLVESGGGVVQPGRSLRLSCAASGFTFSSYDMHWVRQAPGKGLEWVAVIWYDGSNKYYADSVKGRFTISRDNSKNTLYLQMNSLRAEDTAVYYCARGSGNWGFFDYWGQGTLVTVSS chain 2: DIQMTQSPSSLSASVGDRVTITCRASQGISRWLAWYQQKPEKAPKSLIYAASSLQSGVPSRFSGSGSGTDFTLTISSLQPEDFATYYCQQYNTYPRTFGQGTKVEIK,0%
14,unnamed (protein) chain 1: ELQLQESGPGLVKPSETLSLTCTVSGGSISSGSYYWDWIRQPPGKGLEWIGNIYKSGSTYYNPSLKSRVTISVDTSKNQFSLKLSSVTAADTAVYYCARERGMHYMDVWGKGTTVTVSS chain 2: DIQMTQSPSSLSASVGDRVTITCRASQSINSYLNWYQQKPGKAPKLLIYAASSLQSGVPSRFSGSGSGTDFTLTISSLQPEDFATYYCQQQFDPPFTFGGGTKVEIK,0%
15,unnamed (protein) chain 1: EVQLVESGGGLVQPGGSLRLSCAASGFTFSDYNMAWVRQAPGKGLEWVATITYEGRNTYYRDSVKGRFTISRDNAKNSLYLQMNSLRAEDTAVYYCASPPQYYEGSIYRLWFAHWGQGTLVTVSS chain 2: AIQLTQSPSSLSASVGDRVTITCRADESVRTLMHWYQQKPGKAPKLLIYLVSNSEIGVPDRFSGSGSGTDFRLTISSLQPEDFATYYCQQTWSDPWTFGQGTKVEIK,12.8%
16,unnamed (protein) chain 1: QLQLQESGPGLLKPSETLSLTCTVSGGSISSPGYYGGWIRQPPGKGLEWIGSIYKSGSTYHNPSLKSRVTISVDTSKNQFSLKLSSVTAADTAVYYCTRPVVRYFGWFDPWGQGTLVTVSS chain 2: AIQLTQSPSSLSASVGDRVTITCRASQGISSALAWYQQKPGKAPKLLIYDASNLESGVPSRFSGSGSGTDFTLTISSLQPEDFATYYCQQFNSYPTFGQGTKVEIK,2.2%
17,unnamed (protein) chain 1: EVQLVESGGGLVQPGGSLRLSCAASGYTFTNYGMNWVRQAPGKGLEWVGWINTYTGEPTYAADFKRRFTFSLDTSKSTAYLQMNSLRAEDTAVYYCAKYPHYYGSSHWYFDVWGQGTLVTVSS chain 2: DIQMTQSPSSLSASVGDRVTITCSASQDISNYLNWYQQKPGKAPKVLIYFTSSLHSGVPSRFSGSGSGTDFTLTISSLQPEDFATYYCQQYSTVPWTFGQGTKVEIK,0.3%
18,unnamed (protein) chain 1: EVQLVESGGGLVQPGGSLRLSCAASGFTFNTYAMYWIRQAPGKGLEWVARIRSKSNNYAIYYADSVKDRFTISRDDSKNSLYLQMNSLKTEDTAVYYCARPYSDSFAYWGQGTLVTVSS chain 2: DVVMTQSPLSLPVTPGEPASISCRSSQSLVHSTGNTYLHWYLQKPGQSPQLLIYKVSNRFSGVPDRFSGSGSGTDFTLKISRVEAEDVGVYYCSQSTHVPFTFGGGTKVEIK,0%
19,unnamed (protein) chain 1: EVQLVQSGAEVKKPGESLRISCKGSGYSFSTYWISWVRQMPGKGLEWMGKIYPGDSYTNYSPSFQGQVTISADKSISTAYLQWSSLKASDTAMYYCARGYGIFDYWGQGTLVTVSS chain 2: SYELTQPPSVSVSPGQTASITCSGDNIGDQYAHWYQQKPGQSPVLVIYQDKNRPSGIPERFSGSNSGNTATLTISGTQAMDEADYYCATYTGFGSLAVFGGGTKLTVL,40.7%
